Assay results taken from the supplement of paper PMC11780869.

Test system: Bacillus subtilis
Assay: cleaved RNA product abundance (RNA/gDNA barcode ratio) relative to median wild-type variant (ratio to wild type); higher = more accumulation of the downstream cleavage product
Details: cleavage site: cggR-gapA (positions -7 to +36 mutated)
Description: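 MPRA in B. subtilis. Mutagenized RNase Y cleavage-site regions (9% mutation rate) were inserted into a barcoded reporter mRNA (truncated aprE or tetM). Cells were grown in LB at 37°C to OD600 0.3. The cleaved RNA isoform was gel-purified and its barcodes counted; the RNA:gDNA barcode ratio was normalised to the median wild-type variant, and the median over barcodes is reported per variant. The printed sequence is the variable window only; the reporter flanks are not printed.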

[1] = experiment (reporter, strain, medium): exp 4a: truncated aprE reporter, strain BJT201 with 2% xylose (RNase J1 expressed)
[2] = experiment (reporter, strain, medium): exp 2b: truncated aprE reporter, strain BJT200

Row | Sequence | cleaved RNA product abundance [1] | cleaved RNA product abundance [2] | cleaved RNA product abundance (experiment (reporter, strain, medium): exp 6: tetM reporter, strain 168)
1 | ACAGACGAAGGAGCCGCAAAAAAGTTATCAAGGGATGAATAATCCCTCAATATAAATATCTCTCACTTATTTAAA | 0.507 | – | –
2 | ACAGACGAAGGAGCCGCAAAAAAGTTATGAAGGGATGAATAATCCCTCAATATAAATATCTCTCACTTATTTAAA | 0.453 | – | –
3 | ACAGACGAAGGAGCCGCAAAAAAGTTATTAAAGGATGAATAATCCCTCAATATAAATATCTCTCACTTATTTAAA | 0.224 | 0.164 | –
4 | ACAGACGAAGGAGCCGCAAAAAAGTTATTAACGGATGAATAATCCCTCAATATAAATATCTCTCACTTATTTAAA | 0.128 | – | –
5 | ACAGACGAAGGAGCCGCAAAAAAGTTATTAACGGATGAATAATCCTTCAATATAAATATCTCTCACTTATTTAAA | 0.191 | – | –
6 | ACAGACGAAGGAGCCGCAAAAAAGTTATTAACGGATTAATAATCCCTCAATATAAATATCTCTCACTTATTTAAA | 0.142 | – | –
7 | ACAGACGAAGGAGCCGCAAAAAAGTTATTAAGAGATAAATAATCCCTCAATATAAATATCTCTCACTTATTTAAA | 0.0994 | – | –
8 | ACAGACGAAGGAGCCGCAAAAAAGTTATTAAGAGATGAATAATCCCTCAATATAAATATCTCTCACTTATTTAAA | 0.133 | 0.126 | 0.0928
9 | ACAGACGAAGGAGCCGCAAAAAAGTTATTAAGAGATGAATAATCCGTCAATATAAATATCTCTCACTTATTTAAA | 0.0894 | – | –
10 | ACAGACGAAGGAGCCGCAAAAAAGTTATTAAGAGATGAATAATTCCTCAATATAAATATCTCTCACTTATTTAAA | 0.159 | – | –
11 | ACAGACGAAGGAGCCGCAAAAAAGTTATTAAGCGATGAATAATCCCTCAATATAAATATCTCTCACTTATTTAAA | 0.123 | 0.091 | –
12 | ACAGACGAAGGAGCCGCAAAAAAGTTATTAAGGAATAAATAATCCCTCAATATAAATATCTCTCACTTATTTAAA | – | 0.0862 | –
13 | ACAGACGAAGGAGCCGCAAAAAAGTTATTAAGGAATGAACAATCCCTCAATATAAATATCTCTCACTTATTTAAA | 0.182 | – | –
14 | ACAGACGAAGGAGCCGCAAAAAAGTTATTAAGGAATGAATAATCCCTCAATATAAATATCTCTCACTTATTTAAA | 0.156 | 0.112 | –
15 | ACAGACGAAGGAGCCGCAAAAAAGTTATTAAGGCATGAATAATCCCTCAATATAAATATCTCTCACTTATTTAAA | 0.126 | 0.104 | –
16 | ACAGACGAAGGAGCCGCAAAAAAGTTATTAAGGGAAGAATAATCCCTCAATATAAATATCTCTCACTTATTTAAA | 0.403 | 0.426 | –
17 | ACAGACGAAGGAGCCGCAAAAAAGTTATTAAGGGACGAATAATCCCTCAATATAAATATCTCTCACTTATTTAAA | 0.54 | 0.676 | –
18 | ACAGACGAAGGAGCCGCAAAAAAGTTATTAAGGGATAAATAATCCCTCAATATAAATATCTCTCACTTATTTAAA | 0.86 | 0.8 | –
19 | ACAGACGAAGGAGCCGCAAAAAAGTTATTAAGGGATCAATAATCCCTCAATATAAATATCTCTCACTTATTTAAA | 0.712 | 0.923 | –

Row | Sequence | cleaved RNA product abundance [1] | cleaved RNA product abundance [2] | cleaved RNA product abundance (experiment (reporter, strain, medium): exp 6: tetM reporter, strain 168)
20 | ACAGACGAAGGAGCCGCAAAAAAGTTATTAAGGGATGAAAAATCCCTCAATATAAATATCTCTCACTTATTTAAA | 0.695 | 0.785 | –
21 | ACAGACGAAGGAGCCGCAAAAAAGTTATTAAGGGATGAACAATCCCTCAATATAAATATCTCTCACTTATTTAAA | 0.764 | 0.87 | –
22 | ACAGACGAAGGAGCCGCAAAAAAGTTATTAAGGGATGAAGAATCCCTCAATATAAATATCTCTCACTTATTTAAA | 0.918 | – | –
23 | ACAGACGAAGGAGCCGCAAAAAAGTTATTAAGGGATGAATAAACCCTCAATATAAATATCTCTCACTTATTTAAA | 0.631 | 0.468 | –
24 | ACAGACGAAGGAGCCGCAAAAAAGTTATTAAGGGATGAATAAACCCTCTATATAAATATCTCTCACTTATTTAAA | 0.22 | – | –
25 | ACAGACGAAGGAGCCGCAAAAAAGTTATTAAGGGATGAATAACCCCTCAATATAAATATCTCTCACTTATTTAAA | 0.458 | 0.455 | –
26 | ACAGACGAAGGAGCCGCAAAAAAGTTATTAAGGGATGAATAAGCCCTCAATATAAATATCTCTCACTTATTTAAA | 0.793 | 0.639 | –
27 | ACAGACGAAGGAGCCGCAAAAAAGTTATTAAGGGATGAATAATACCTCAATATAAATATCTCTCACTTATTTAAA | 0.17 | 0.139 | –
28 | ACAGACGAAGGAGCCGCAAAAAAGTTATTAAGGGATGAATAATCACTCAATATAAATATCTCTCACTTATTTAAA | 0.12 | 0.108 | –
29 | ACAGACGAAGGAGCCGCAAAAAAGTTATTAAGGGATGAATAATCCATCAATATAAATATCTCTCACTTATTTAAA | 0.307 | 0.17 | –
30 | ACAGACGAAGGAGCCGCAAAAAAGTTATTAAGGGATGAATAATCCCACAATATAAATATCTCTCACTTATTTAAA | 0.254 | 0.237 | –
31 | ACAGACGAAGGAGCCGCAAAAAAGTTATTAAGGGATGAATAATCCCCCAATATAAATATCTCTCACTTATTTAAA | 0.35 | 0.238 | –
32 | ACAGACGAAGGAGCCGCAAAAAAGTTATTAAGGGATGAATAATCCCGCAATATAAATATCTCTCACTTATTTAAA | 0.231 | 0.141 | –
33 | ACAGACGAAGGAGCCGCAAAAAAGTTATTAAGGGATGAATAATCCCTAAATATAAATATCTCTCACTTATTTAAA | 0.765 | 0.57 | –
34 | ACAGACGAAGGAGCCGCAAAAAAGTTATTAAGGGATGAATAATCCCTCAAAATAAATATCTCTCACTTATTTAAA | 0.376 | 0.349 | –
35 | ACAGACGAAGGAGCCGCAAAAAAGTTATTAAGGGATGAATAATCCCTCAACATAAATATCTCTCACTTATTTAAA | 0.272 | 0.239 | –
36 | ACAGACGAAGGAGCCGCAAAAAAGTTATTAAGGGATGAATAATCCCTCAAGATAAATATCTCTCACTTATTTAAA | – | 0.251 | –
37 | ACAGACGAAGGAGCCGCAAAAAAGTTATTAAGGGATGAATAATCCCTCAATACAAATATCTCTCACTTATTTAAA | 0.0755 | – | –
38 | ACAGACGAAGGAGCCGCAAAAAAGTTATTAAGGGATGAATAATCCCTCAATATAAAAATCTCTCACTTATTTAAA | 0.82 | 1.08 | –
